B1: Exocyst complex component SEC3 (Saccharomyces cerevisiae), P33332 (parent)
chain: MRSSKSPFKRKSHSRETSHDENTSFFHKRTISGSSAHHSRNVSQGAVPSSAPPVSGGNYSHKRNVSRASNSSQTSNFLAEQYERDRKAIINCCFSRPDHKTGEPPNNYITHVRIIEDSKFPSSRPPPDSKLENKKKRLLILSAKPNNAKLIQIHKARENSDGSFQIGRTWQLTELVRVEKDLEISEGFILTMSKKYYWETNSAKERTVFIKSLITLYIQTFEGHVPELVNWDLSLFYLDERSYQRAVITNRPGSVSPIKSPTSNFTTNTTQSVGSVPFSAPTERTRRSETESVNPVSTPASVEYHAGMKSLNKAPYSSNSTLNEVNKRYELEQQQQQEEAELRRLEEQKRLQLQKENEMKRLEEERRIKQEERKRQMELEHQRQLEEEERKRQMELEAKKQMELKRQRQFEEEQRLKKERELLEIQRKQREQETAERLKKEEQEALAKKEEEEKSKRNKVDNESYTQEINGKVDNLLEDLNAVLAEETETTPTMQNGTYVPERSTARAHDQLKKPLNIAKVESLGGSDLNDSISLSDEIAGLNTSNLSGEDQDEKNDLSFEKGDEVRYSNNFEGEAPHVYHEVSIIQEEAPAVSQKLILPEENNESEALIESKEEIKTMENIDDEVLLEILTDINWSIEDDADSMIERIDLRLAETEYLFNQNLLSLQKIGPNIRPYEDKVNDECHRIIPTLSLFLMEMSNFSNDIENVESQDNGLQVESANKKLLWNTLDELLKTVSLDEISLNQLLECPIREKNLPWMENQLNLLLKAFQAIGSDGNEVEYNLREISGLKQRLQFYEKVTKIFLNRIVEEMQKKFSNIRGQDISHDQMIRILTTLLIFSPLILFCKEISQKSYQAIVENWNVSIQPVYMELWTKKISQLQGIDTNDEKMNELSLSQLLNEWDTFRKERKTNDINPVFKNSFSLLTECLQTMRQECIVYQNFVEVFFHISSKHNFEEYIKHFNDPDAPPILLDTVKVMQSDREAAVIETQLVSRIFQPIVTRLSSYFVELVKAEPTVAPALTFYLENEIKSLESSNHEFLLSAVTRMYTQIKQVWSDNVEEQVLHFERISNATTNGEILPGILDLPVGLKNSEDLFQFAKRSMDIKDTDEGYESIELMNSSFRKLSIAATRSITHKEVNSSINPNLSDTAALNNDYMETISLLVNSNWLTEMLSMLNFNKDGIFDTSLQNVKKVFDVEKESYASFLLRDTMPKLTAFVYGVSNIIENTNNVNMTNPSRWAAYSRQNLENILLAYTSHEIETLVKRLHTHMVNDFGYHQENAINNVLCDKLWSCIQGQTVSLYLKLYTVIDKHYRGTNIRFTKNDIISAFEEYKNA

Variants of: B1
Conditions: with rho1_yeast RHO1, P06780
Sequence of rho1_yeast RHO1, P06780 (P06780 whole entry): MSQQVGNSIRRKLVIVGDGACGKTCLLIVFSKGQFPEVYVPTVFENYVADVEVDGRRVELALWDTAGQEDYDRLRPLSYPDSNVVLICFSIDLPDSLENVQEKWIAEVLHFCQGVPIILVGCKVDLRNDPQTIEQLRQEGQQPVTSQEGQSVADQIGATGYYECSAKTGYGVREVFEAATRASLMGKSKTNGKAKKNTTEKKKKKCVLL

Row | Variant | effect of a mutation on the interaction
1 | K136A | disrupting interaction
2 | E199A | disrupting interaction
3 | L131A | disrupting interaction
